{
  "source": "patent US5733730",
  "about": "“Telomere repeat binding factor and diagnostic and therapeutic use thereof” (The Rockefeller University)",
  "binders": {"B1": {"name": "145 bp TTAGGG repeat gel-shift probe (dsDNA)", "DNA 1": "GTACCCGGGGATCGTGACTCTAGAGGGGCCCTAACCCTAACCCTAACCCTAACCCTAACCCTAACCCTAACCCTAACCCTAACCCTAACCCTAACCCTAACCCTAACCCGGGTCGAATTCGATCTCTAGAGTCGACCTGCAGGCATGC", "DNA 2": "GCATGCCTGCAGGTCGACTCTAGAGATCGAATTCGACCCGGGTTAGGGTTAGGGTTAGGGTTAGGGTTAGGGTTAGGGTTAGGGTTAGGGTTAGGGTTAGGGTTAGGGTTAGGGTTAGGGCCCCTCTAGAGTCACGATCCCCGGGTAC"}, "B2": {"name": "(TTAGGG)12 restriction fragment probe (dsDNA)", "DNA 1": "TTAGGGTTAGGGTTAGGGTTAGGGTTAGGGTTAGGGTTAGGGTTAGGGTTAGGGTTAGGGTTAGGGTTAGGG", "DNA 2": "CCCTAACCCTAACCCTAACCCTAACCCTAACCCTAACCCTAACCCTAACCCTAACCCTAACCCTAACCCTAA"}},
  "key": {"[1]": {"molecular_target": "T1, TRF purified from HeLa nuclear extract (Homo sapiens, UniProt P54274 SEQ:1-439)", "T1 chain": "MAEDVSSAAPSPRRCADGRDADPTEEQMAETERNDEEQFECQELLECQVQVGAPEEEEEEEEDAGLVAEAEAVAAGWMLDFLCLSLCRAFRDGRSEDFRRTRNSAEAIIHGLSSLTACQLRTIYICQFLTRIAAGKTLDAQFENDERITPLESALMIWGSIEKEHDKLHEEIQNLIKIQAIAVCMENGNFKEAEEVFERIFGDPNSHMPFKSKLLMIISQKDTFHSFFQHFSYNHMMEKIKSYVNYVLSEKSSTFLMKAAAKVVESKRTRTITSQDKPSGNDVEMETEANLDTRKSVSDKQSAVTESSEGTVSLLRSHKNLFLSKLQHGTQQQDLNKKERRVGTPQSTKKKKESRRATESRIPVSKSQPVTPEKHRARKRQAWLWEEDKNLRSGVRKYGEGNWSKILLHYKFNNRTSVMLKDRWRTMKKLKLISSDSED", "assay": "EMSA; column fractions in 100 mM KCl, 20 mM HEPES, 3 mM MgCl2, 20% glycerol, 0.1% NP-40; binding lost when highly purified, rescued by casein", "settings": "label: radiolabelled", "method": "TRF was isolated from a total of 9.2×10^11 HeLa Cells, equivalent to 940 liters of culture (in Joklik's Media, supplemented with bovine calf serum, 2 mM L-glutamine, 0.1 mM non-essential amino acids, and penicillin/streptomycin). A nuclear extract containing 4 grams of protein and about 650 pmol of TRF (1 pmol TRF is defined as the amount of protein required to complex 1 pmol of labelled probe), as determined by quantitation using a PhosphoImager, was obtained from the cells and the soluble fraction was then purified over a series of ion exchange and affinity columns, as noted above. For each column, the sample was loaded in buffer containing 100 mM KCl and the flow-through was reloaded. The columns were developed in buffer with increasing potassium chloride salt concentration, with a final stripping of the column with 1M salt. All fractions were dialyzed to 100 mM KCl, 20 mM HEPES, 3 mM MgCl_2, 20% glycerol, and 0.1% NP-40 (nonidet-P40). Activity was determined by gel shift assay using a probe of 145 bp fragment containing (TTAGGG)_2 having the following sequence (SEQ D NO:21): […]"}, "[2]": {"molecular_target": "TRF (HTRF4.1, TRF1) partial ORF from N-terminal XhoI site to stop (Homo sapiens, UniProt P54274 SEQ:45-439)", "assay": "EMSA; reticulocyte lysate; no complex without TRF cDNA; text of Example 4 prints probe as (TTAGGG)2", "settings": "tags: His6 (pET28b, Novagen) N-terminal fusion; label: radiolabelled", "text": "Proof that the cDNAs encode TRF activity. One of the human cDNAs (HTRF4.1) was used to construct a fusion protein in which part of the TRF open reading frame from the N-terminal Xho I site to the natural termination codon at the Hind III site was inserted into the pET28b His6Tag expression vector from Novagen (Madison, Wis.). This new, chimeric open reading frame contained an initiator ATG codon with \"Kozak rules\" environment at its 5' end as well as an T7 RNA polymerase promoter sequence upstream. This construct was used for in vitro coupled transcription/translation (using a kit from Promega) resulting in synthetic protein (labelled with […]) with an apparent molecular weight (MW) of 60 kD. The in vitro synthesized protein was used in a gel-shift assay with a double stranded (TTAGGG)_2 repeat probe and shown to form a complex that migrates close to the HeLa TRF gel-shift complex."}, "[3]": {"molecular_target": "T2, TRF (MTRF12, full length) (Mus musculus, UniProt P70371 P70371:1-421)", "T2 sequence": "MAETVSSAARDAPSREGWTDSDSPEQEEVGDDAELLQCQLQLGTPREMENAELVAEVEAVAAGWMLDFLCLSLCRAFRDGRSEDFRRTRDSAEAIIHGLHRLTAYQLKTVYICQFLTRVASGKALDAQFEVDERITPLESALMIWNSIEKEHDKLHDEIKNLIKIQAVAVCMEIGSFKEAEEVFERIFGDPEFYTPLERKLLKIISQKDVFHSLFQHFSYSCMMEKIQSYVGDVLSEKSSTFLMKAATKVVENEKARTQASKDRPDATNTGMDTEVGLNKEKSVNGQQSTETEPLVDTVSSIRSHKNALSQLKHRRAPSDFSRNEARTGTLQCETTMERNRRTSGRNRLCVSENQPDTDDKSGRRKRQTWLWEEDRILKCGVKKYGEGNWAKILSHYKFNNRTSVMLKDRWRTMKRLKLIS", "assay": "EMSA; reticulocyte lysate; complex co-migrates with J558 mouse TRF", "settings": "label: radiolabelled", "text": "The mouse cDNA (MTRF12) contained its own initiator codon and was transcribed and translated without further modification using the T3 promoter in its pBluescript vector. Similar to the human cDNA, a ~60 kD protein was synthesized that bound TTAGGG repeats but not TYGGGG or TTAGGC repeats (FIG. 6)."}},
  "data": [
    {"binder": "B1", "values": [
      {"measurement": "binding result", "setting": "[1]", "value": "binds"}
    ]},
    {"binder": "B2", "values": [
      {"measurement": "binding result", "setting": "[2]", "value": "binds"},
      {"measurement": "binding result", "setting": "[3]", "value": "binds"}
    ]}
  ]
}
